Biological target: anti-PfTRAP mAb AKBR-7 (mouse)
Experiment: BLI; Octet QKe; antibodies in culture supernatants immobilized on anti-Mouse IgG Fc Capture biosensors; antigen serially diluted (1–1000 nM) in 10x Kinetics Buffer (PBS + 0.1% BSA, 0.02% Tween-20, 0.05% sodium azide); fit to the 1:1 binding model

B1: Plasmodium falciparum TRAP ectodomain (PfTRAP) (domain or fragment)
chain: RDVQNNIVDEIKYSEEVCNDQVDLYLLMDCSGSIRRHNWVNHAVPLAMKLIQQLNLNDNAIHLYVNVFSNNAKEIIRLHSDASKNKEKALIIIRSLLSTNLPYGRTNLTDALLQVRKHLNDRINRENANQLVVILTDGIPDSIQDSLKESRKLSDRGVKIAVFGIGQGINVAFNRFLVGCHPSDGKCNLYADSAWENVKNVIGPFMKAVCVEVEKTASCGVWDEWSPCSVTCGKGTRSRKREILHEGCTSEIQEQCEEERCPPKWEPLDVPDEPEDDQPRPRGDNSSVQKPEENIIDNNPQEPSPNPEEGKDENPNGFDLDENPENPPNPDIPEQKPNIPEDSEKEVPSDVPKNPEDDREENFDIPKKPENKHDNQNNLPNDKSDRNIPYSPLPPKVLDNERKQSDPQSQDNNGNRHVPNSEDRETRPHGRNNENRSYNRKYNDTPKHPEREEHEKPDNNKKKGESDNKYK
modifications: site-specific biotinylation using BirA ligase, when required
For B1, the Kd was 150 pM.

Reference: paper PMC9135708
